Assay results: patent US20200291098A1 (PANASONIC INTELLECTUAL PROPERTY MANAGEMENT, published 2020)

Key:
[1] = target: intranuclear protein derived from type-A influenza virus subtype H1N1 (A/Hokkaido/6-5/2014) (type-A influenza virus H1N1 …)
[2] = target: recombinant nucleoprotein (NP) protein derived from influenza virus H1N1 to which a Flag tag was fus (influenza virus H1N1)
Chain of recombinant nucleoprotein (NP) protein derived from influenza virus H1N1 to which a Flag tag was fus (influenza virus H1N1) (P03466 whole entry): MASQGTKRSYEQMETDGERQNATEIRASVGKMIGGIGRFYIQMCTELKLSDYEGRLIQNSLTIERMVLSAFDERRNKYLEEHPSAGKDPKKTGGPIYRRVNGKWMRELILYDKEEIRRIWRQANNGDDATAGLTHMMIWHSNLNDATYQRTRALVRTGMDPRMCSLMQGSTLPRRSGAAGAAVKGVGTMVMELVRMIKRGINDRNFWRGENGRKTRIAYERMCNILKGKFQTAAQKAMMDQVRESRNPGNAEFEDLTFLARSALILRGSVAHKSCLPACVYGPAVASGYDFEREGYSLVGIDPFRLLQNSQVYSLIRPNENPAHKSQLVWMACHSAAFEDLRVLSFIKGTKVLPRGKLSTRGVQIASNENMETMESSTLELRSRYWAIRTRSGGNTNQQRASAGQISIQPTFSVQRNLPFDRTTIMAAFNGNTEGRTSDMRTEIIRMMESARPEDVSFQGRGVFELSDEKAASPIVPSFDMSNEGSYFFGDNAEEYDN

B1: VHH antibody consisting of the amino acid sequence represented by SEQ ID NO: 8 (VHH)
VHH: EVQLVESGGGLVQPGGSLSLSCAASGFTFSNYYMGWFRQAPGKERQSLATVNSGGTGEAYADSIRGRFTISRDNAKNTVTLQMSSLQPEDTAVYYCARVDGRVLSTIVVSYDYWGQGTQVTVSS
How did the “EC50 (read off the curve)” value [1] turn out when B1 was run?
Its value is roughly 8 ng/mL.

And the Kd [2]?
Its Kd is 201 pM.
